Measurements as given in the DeepSol protein solubility set.

Experiment: soluble on expression in E. coli; label from the status in PepcDB or PDB records

Sequence	soluble on expression in E. coli
MKTRHYSLLIFLAGSAFFPEISAQLANCQNLGTPINSTDCLCPGFVDGRLCENIKCQRWAVPDKNRCACAPGWYDRYCGLRGCRPPNEEQMDLEKRSFIIVFNTKTTMKMQLDSLKNNFKEMISKVSKNSKGVVNNWIENYIVYGFVESQSHTKIQKLFTENPDDVISFFNNMTLFDGDDTQPVLTAIQNAQQTYPKMQAHALVLVFTDSPASDATAWSHRFTDKNAEQSVLQISLIWRSKYSFFLSLPARTNFLSNGVDVYRRLSLTNHGDTFFIKDSNDLSNALLNVIGVQYFPENVQIGYGKTTDEQLQTYVDNDGDLVYILLTIRSSLQTTVPSISEATIVAEGDSYRLYSPASNIGDTVTIHCQNGTTYNYRMFIQSKNTLLFNYNDDMHIDVGNGMAVIGAKSIFLGTKNSANRDHNAHDLSGNANELTTNVSKNNTDTCSKKNLDSINDPRLQEPRQFIFILEQHSGNEQVYKTLAREINDILELVNSSTTSEYKKEFTLIAHDSAESHVLFSSYNPKIFAEKFSKLVNSLELTDNLDNTMGLLSIIHAQKMNILPTALVYYFTNQAVKNAQNLTRNWDLVKRDIEINFLTIADGVTTEIFALPKQLELVQKMTNGRLIPLGKTENSIFPIFKDMMTVTTLTTDNEQYNCHDTALEIDGYFEDGASVSISNYVTYKNPNFMSIRIDSKLFASGKWKLSALSTTGGCQITVRQKTSVGLVLGFTAATNDDNASTQIISQRSSSDSQPIFTTLKTTNHIVPTDLEIQIVNRQRYDQPVSYVKLGNAQRDTNSCSYDFISDSVVVPKSTLTMWIVSATDNAGKLILHRIFYYYLPRILSEFAVVLQGFMEIFVKLCSCSPPTLLQCLQYRPLQSQHK	not soluble
MKTVDSELFDSGPFKKNFAFGNADHSTASPFEISTTPIEVNESRAHKTIEISNRARLESQNDGCLSPSSLKSVLDEIQTEPRCKSPQHIDLHTFRDAVDVNYQRMAITGEELSGVPLEDLKTASGHLIEALHLRSKYMERIGNQFPSTTRNFLSGHYPANLPKHRVKNTETTVQTSFNPPDPPKDHWGKNDPLPKYEKIYHLRRNRGVTEICNDDGSIDQQFKNVNVTKEEFLNDTEKLTAMIVDGPLKSFCFRRLSYLENKFQLHVLLNELRELHEQKGVSHRDFYNIRKVDTHIHAASSMNQKHLLRFIKKKIKTEADTVVLNNNGTKVTMKEVFKKMGIDAYDLSVDMLDVHADRNTFHRFDKFNTKYNPVGESTLREIFIKTDNYVGGKYFADLLKEVLSDLEDSKYQHAEPRLSIYGRSKNEWDNLAKWALTHDVWSPNARWLVQIPRLYDVYRAKNMVKNFDDMLDNLFTPLFEVTNDPSSHPELHLFLQQISGIDSVDDESKHEFVNFDRSTPCPPEYTDLENPPYNYYLFYMYRNICALNAFRRARGLNTFALRPHCGEAGHVSHLLTGYLTSESIAHGILLRKVPVLQYLYYLTQIGIAMSPLSNNSLFISYQRNPLPEYLQKGLNVSLSTDDPLQFHYTKEALMEEFSIAAQVWKLSSCDMCELARNSVMQSGFEDKVKIHWLGPNYKEEGVLGNDIHRTNVPDIRVSFRHEALVDELYNLFRVQNTLKQ	not soluble
MKTWPAPTAPTPVRATVTVPGSKSQTNRALVLAALAAAQGRGASTISGALRSRDTELMLDALQTLGLRVDGVGSELTVSGRIEPGPGARVDCGLAGTVLRFVPPLAALGSVPVTFDGDQQARGRPIAPLLDALRELGVAVDGTGLPFRVRGNGSLAGGTVAIDASASSQFVSGLLLSAASFTDGLTVQHTGSSLPSAPHIAMTAAMLRQAGVDIDDSTPNRWQVRPGPVAARRWDIEPDLTNAVAFLSAAVVSGGTVRITGWPRVSVQPADHILAILRQLNAVVIHADSSLEVRGPTGYDGFDVDLRAVGELTPSVAALAALASPGSVSRLSGIAHLRGHETDRLAALSTEINRLGGTCRETPDGLVITATPLRPGIWRAYADHRMAMAGAIIGLRVAGVEVDDIAATTKTLPEFPRLWAEMVGPGQGWGYPQPRSGQRARRATGQGSGGKLAAALEHHHHH	soluble
MKVALYAGTYVKDKDGAVRSIYQLVSSMIKNGHQVVVWTPDFTPEANASVPVNLTPSVPIPLYPDYKLGFYNAVTERQLDEFAPDIVHISTPDIVGRKFLHYAKRKGLPVGSAYHTDFPSYLSYYRLGFAEPAVWRFLRKFYNACDVTLAPNESVRERLTGKGIERVELWSRGIDKELFDPSRRSAKLRRAWDAEGRTVIIYAGRFVLYKDIEVVMSLYQRFADEGLGDRVRFVMIGSGPEEAQMRARMPEAVFTGYLTGTTLPEAYASGDLFLFPSTTEAFCNVTLEALATGLPAVVSDVGGCQELVERSGGGFVAKAGDVGDFYACCTKLMQDGELFRSMRERGLAFAKDKSWAAVNGKLIDRYLELIAAKARRLEHHHHHH	not soluble
MKVASGSTATAAAGPSCALKAGKTASGAGEVVRCLSEQSVAISRCAGGAGARLPALLDEQQVNVLLYDMNGCYSRLKELVPTLPQNRKVSKVEILQHVIDYIRDLQLELNSESEVGTPGGRGLPVRAPLSTLNGEISALTAEAACVPADDRILCRLEHHHHHH	soluble
MKVDLNADAGESYGAFAYGHDREIFPLVSSANLACGFHGGSPGRILEAVRLAKAHGVAVGAHPGFPDLVGFGRREMALSPEEVYADVLYQIGALSAFLKAEGLPLHHVKPHGALYLKACRDRETARAIALAVKAFDPGLPLVVLPGTVYEEEARKAGLRVVLEAFPERAYLRSGQLAPRSMPGSWITDPEEAARRALRMVLEGKVEALDGGEVAVRADTLCIHGDNPNAPEVARAVREALEQAGVEVRAF	soluble
MKVGIIGASGYTGSELLRILANHPEAEVIAASSRRYEGQKIWKVHRFLKGFYDLEFCSPELSNFGDCDLVFTAVPHGEAMKYVPQLLDSGIKVVDISADYRLDKETYERVYGKKHEGYVEAVYGLTELHREEIKKANLVANPGCYPTGTILAASPLAKLELIERVVFDCKSGITGAGESPSAFTHYPNLHESIVPYKITEHRHYYEMVQELGRFQSDIKISFTPQVYPGSRGILTNAHVFLRGELTREELYRIYEEFYEDSFFVRIQESVSLSQVRGSNFCDISIHPGEDRVVVVSAIDNLVKGASGQAVQNMNLMMGFDETLGLRTPPLFP	not soluble
MKVGIVLGTKPSNPLEFWVGVEKGKFLQLDDVVVVNSKIDGTNEEIKFYGIVQEVIKYLEGVELVYDAQLVNSGVVPANLAYMARVSVTRIEPEVFIPPTPGDYVFKAEGIDFEKALYYDNMKRKIPAGLTRNGEVVYLNYDFINGREGAHISISGMSGVATKTSYALFLLYSIFQKADDRTKIHGIIFNVKGKDLLWIDKKNKRFTKEHREAFEKLGLPPEPFKNVAFWAPPEQEWSEIPSSGERLEGVFPYKWSMKDFAQEGLLRFLFAEGDEGATSLHYVIDRVSEKLQQLAKESPGDVLLDENGQEINSLGDLLKLLHEVIEDRETKRDPDRYREWFGTAATATAYAFLRRFHHAASHCKHLVHGNKSRHIDWRSHQLNVIDISDLHGIAKMFVVGSILKKIFREKEETGNPYPKIFVVLDELNKYAPKDKWSPIKEILLDIAERGRSLGVILIGAQQTASEIEKRIVANAAVKVTGRLDSSEVLSKEYEFLTGNFRQRAIMLKKGTMILYQPDIPNPVMIKFPLAPWATKKEEVEEEVSAPKEFDQF	soluble
MKVIEVTHPIQSKQYITEDVAMAFGFFDGMHKGHDKVFDILNEIAEARSLKKAVMTFDPHPSVVLNPKRKRTTYLTPLSDKIEKISQHDIDYCIVVNFSSRFANVSVEDFVENYIIKNNVKEVIAGFDFTFGKFGKGNMTVLQEYDAFNTTIVSKQEIENEKISTTSIRQDLINGELQKANDALGYIYSIKGTVVQGEKRGRTIGFPTANIQPSDDYLLPRKGVYAVSIEIGTENKLYRGVANIGVKPTFHDPNKAEVVIEVNIFDFEDNIYGERVTVNWHHFLRPEIKFDGIDPLVKQMNDDKSRAKYLLAVDFGDEVAYNI	not soluble
MKVLILRPAELLSETIRRFREEGFDAYGCPFIKLIYTDFDVPEHDFAIVTSQNAARVLRERGVRLKRVIAIGKKTAELIEAEEVLLPSKFDSETLYEEFAEMLRGKRVVAFRSNAGSEAVKRLSEVADFREIQVYRIEKLQGEEQRREVEKVREGFYDAIVFSSSMIARSLLELCDEKCLEALKNIFVVAIGPPTAKVLAEKGIRAEIPEEYTFDGVIELLKSKKMLEHHHHHH	soluble
MKVLITSGGTTEPIDNVRGISNFATGSLGKVTAENFLNAGHEVYLLAGLQAKLPEFTDRLTYIPIEGTHDLYEQMKNLVPDMDVVIHSMAVSDYRPIYMTGLENFTDKFSKEELLNFRPEKVGKISSKSDYQIMLLEKTPKIISYIKEWNPNVLLFGFKLLVGVEKSELLSVAREKLLTNHADFILANDLENIHGNDHQAFLVSKNHEITLKTKAEIADRLLKTSEELKND	soluble
MKVLVPVKRLIDYNVKARVKSDGSGVDLANVKMSMNPFDEIAVEEAIRLKEKGQAEEIIAVSIGVKQAAETLRTALAMGADRAILVVAADDVQQDIEPLAVAKILAAVARAEGTELIIAGKQAIDNDMNATGQMLAAILGWAQATFASKVEIEGAKAKVTREVDGGLQTIAVSLPAVVTADLRLNEPRYASLPNIMKAKKKPLDEKTAADYGVDVAPRLEVVSVREPEGRKAGIKVGSVDELVGKLKEAGVI	soluble
MKVSLAGQTVDVKKILNEIPKRTVTAALLEGGEIVAVEEADDEHAERKLVRRHDVEGKVVFVTARPCLYCARELAEAGVAGVVYLGRGRGLGPYYLARSGVEVVEVHPDEPLGYDPVDRLDVLLTFGGNPYLTEEDVAARVYCLLTGRGFDADIAPAPENLSGRVEIMVTRGDPDEAVELLKEELPVFRIRRFLISGEFDRDELRERILEDIEPRILDPFAVRARIARAGAFSSSREAEVFIGDVLTSVGREVNLNDPRTVVTVDVLGPRVSVGVEKR	soluble
MKVTIIGASGRVGSATALLLAKEPFMKDLVLIGREHSINKLEGLREDIYDALAGTRSDANIYVESDENLRIIDESDVVIITSGVPRKEGMSRMDLAKTNAKIVGKYAKKIAEICDTKIFVITNPVDVMTYKALVDSKFERNQVFGLGTHLDSLRFKVAIAKFFGVHIDEVRTRIIGEHGDSMVPLLSATSIGGIPIQKFERFKELPIDEIIEDVKTKGEQIIRLKGGSEFGPAAAILNVVRCIVNNEKRLLTLSAYVDGEFDGIRDVCIGVPVKIGRDGIEEVVSIELDKDEIIAFRKSAEIIKKYCEEVKNL	soluble
MKVTLSVLKADIGSVGGHTLPSRKVLAKVEEVVREEVGRLLLDAYVFHIGDDIVLLLSHTRGVRNQEVHALAWKAFREGTEVAKAEGLYGAGQDLLKDAFTGNLHGLGPQVAEMEFTERPAEPFMVLAADKTEPGAFNLPLYLAFADPMYSSGLLLSPELRPGFRFRIMDLAQTERDSYIELDAPERLYDIATLLRDSHRFAIESIWSRKHGEQAAVVSTTRLRNIAGRYVGKDDPVAIVRTQKIFPATEEFGPVFALAPYVAGDTRGSHHMPLMPVRANTPASTFFCVPMVCGLAFSLREGRLSEPVDLFADPVWEAVRAKVVEKAQEMRRQGFYGPAMLPMEELEYTGIAERLKALEREFS	soluble
MKVWRVEKREEGWRLDQFLKEKTPSWISRSMIQKAIKEGKVKVNGQIKKPSYKLKEGEIVEVDLPEKPQEATVQPEEIELKVLYEDRDIIVIDKPGDMIVHPVPSKLSGTLVNALLHHCKDLQGVGGKLRPGIVHRLDKETSGVIVVAKNDFAHQSLSKQFKDRKVKKTYILLVKGKMKNDEGVIDLPLARHPVLRIKMAVVETGKEAITEYRVLKRFDDVATLVLAFPKTGRTHQIRVHMKSLGHPIMGDKIYGKPKEDEIFGIKRQMLHALKLGFFHPRTGEWMEFVSPLPEDFKEAIRRIHEYVRERS	soluble
MKVYLHFSPQFFANTYLIGNEITKEAVIIDPAKITEKMIHQIEKNEFNLKAVLLTHDLEHPYETGLNTILKIYSPKVYAGSCFSENVTINTLRGDGCIDVAGYSVRYFAIPAHSSYSYMFQIENMVFTGTSLSAGMIGQTSNMYAERTLRNILKTKLMCFEDNLIIMPFYGPPTSIGVERKYNASFFQDFEKKPFLEHHHHHH	soluble
